The results in this text go back to the DeepSol protein solubility set.

The nature of this data set: soluble on expression in E. coli; label from the status in PepcDB or PDB records.
As for “MGSDKIHHHHHHMKHGILVAYKPKGPTSHDVVDEVRKKLKTRKVGHGGTLDPFACGVLIIGVNQGTRILEFYKDLKKVYWVKMRLGLITETFDITGEVVEERECNVTEEEIREAIFSFVGEYDQVPPAYSAKKYKGERLYKLAREGKIINLPPKRVKIFKIWDVNIEGRDVSFRVEVSPGTYIRSLCMDIGYKLGCGATAVELVRESVGPHTIEESLNVFEAAPEEIENRIIPLEKCLEWLPRVVVHQESTKMILNGSQIHLEMLKEWDGFKKGEVVRVFNEEGRLLALAEAERNSSFLETLRKHERNERVLTLRKVFNTR”, the “soluble on expression in E. coli” value is “not soluble”.
The result for “MDAVVATQTPAEVFDVVVVGGGPAGATAATDLARAGRRVALLDPEGRPKPCGGAIPPRLMSEFAIPDDLPCAQVSGARALAPSGRVVDMPITGAVVSMVDRAVFDPWLRARAHQAGACRLHGRFEGFDRQEDGALVVLWRPEGAAVANRIVARYVVGADGARSKVAALAVAGAAPPCVAAYHEIIRAPAAPAASAPTPATAAGPAYDPARCDVIYRGDISPDFYGWIFPHGETLSIGSGTAVKGFSLREAVALLRREAGLDGLEVVRREGAPIPLRPRKRWDNGRDVVLIGDAAGVVAPASGEGIYYAMASGKMAAEALGEALAGAGPAALAQVRRRFLKAHGKTFWSLGLLQRFWYRSDRWRESFVAICADRDVQRLVWQSYLTKDLARGNMGAYMRIFFKDVAHLIGIAKSLEHHHHHH” reads “not soluble”; that for “GMSMPNHPNLTTADAKKILNKFNCLDIAPILKPSEKESVRRALILITKLSDYQILGICADTADEGLLAMKTYSHALGYEVPIDLPVVEGPVYIKLNGKNGLCYLDSYAGHHRGVLVSCQSYYEGGINEMYGHLPLDLFV”, “soluble”.
In the case of “MSLEYKQASIFDNEVKKNKPLADRMRPKTLDEFVGQEHLLGKGKLLRELIEKDNITSMILWGPPGVGKTTLAMIIANMTNSKFITFSAVLSGIKEIKEIMAKAELDAMYGTRTVVFIDEIHRFNKAQQDAFLPHVEKGNIILIGATTENPSFEVNSALLSRSKVFVMKPLTEEDLLILLKRALKDEQNGFGMYKIGITDEQLKKIALFANGDARVALNTLEIAVMGAKVIEGERIVTDDILADAMQKKTLLYDKQGEEHYNLISAFHKSLRNSDWDAAVYWLARMLEAGEDPLYIARRMIRFASEDIGLADPQALEMAVAAYNACHYIGIPECSVNLAQVAIYLALAPKSNAVYMAYNKAKKDAEETIAESVPIHLRNAPTKLMKELGYGKGYKYAHDFEEKVTDMQCLPDNLKDRKYYVPTDSGFEKDIQKRLEQISNLKKKGEGHHHHHH”, the “soluble on expression in E. coli” value is given as “soluble”.
As to “MGHHHHHHSHMESLVVGDIAELRPNQGTLSLFTNEAGGILDDLIVTNTSEGHLYVVSNAGCWEKDLALMQDKVRELQNQGRDVGLEVLDNALLALQGPTAAQVLQAGVADDLRKLPFMTSAVMEVFGVSGCRVTRCGYTGEDGVEISVPVAGAVHLATAILKNPEVKLAGLAARDSLRLEAGLCLYGNDIDEHTTPVEGSLSWTLGKRRRAAMDFPGAKVIVPQLKGRVQRRRVGLMCEGAPMRAHSPILNMEGTKIGTVTSGCPSPSLKKNVAMGYVPCEYSRPGTMLLVELPSGPCF”, the “soluble on expression in E. coli” value is “not soluble”.
On to “MFNYSTKDANLSNKTILVTGAGAGIGRTAALTYAQLGATVILLGKTVSKLEAVYDEIVALGLAEPAIIPLDLKGATKQNYIDMSSTISSQFGHLDGVLLNASILGELTPFTQMHEQVFNDVMKVNVTAQCLLAQTLIPTLLLAPNASLVFTSSGVGSQGRAYWGQYSISKFATEGMMQVIADEYEGSNLRTNAINPGATNTNMRSCAFPAEDKDELATPEDIMPLYVYLMSDDSLEINGQTLKAQ”, for which the “soluble on expression in E. coli” value was “not soluble”.
In the case of “MATVLIVGRPNVGKSTLFNKLVKKKKAIVEDEEGVTRDPVQDTVEWYGKTFKLVDTCGVFDNPQDIISQKMKEVTLNMIREADLVLFVVDGKRGITKEDESLADFLRKSTVDTILVANKAENLREFEREVKPELYSLGFGEPIPVSAEHNINLDTMLETIIKKLEEKGLDLESKPEITDAIKVAIVGRPNVGKSTLFNAILNKERALVSPIPGTTRDPVDDEVFIDGRKYVFVDTAGLRRKSRVEPRTVEKYSNYRVVDSIEKADVVVIVLDATQGITRQDQRMAGLMERRGRASVVVFNKWDLVVHREKRYDEFTKLFREKLYFIDYSPLIFTSADKGWNIDRMIDAMNLAYASYTTKVPSSAINSALQKVLAFTNLPRGLKIFFGVQVDIKPPTFLFFVNSIEKVKNPQKIFLRKLIRDYVFPFEGSPIFLKFKRSR”, the “soluble on expression in E. coli” value is reported as “soluble”.
Regarding “MSLGETFTITKMNVERIKQEERLFCKSCASPVMIKAGQIKIPHFAHEKTMKCAFASEGESEEHLAAKKQIMAWYCYQSIPVEVESYFPEIKRQADIFVNGKAVIEFQRSSISISEMIQRTMDYLSIGLEVHWILGQVVRKEKGRICLSAFQQAFIQSDKKLGYHFWHYSTEREICTLYYHLTFEKGNRFFASEMKFSMKAPFSEWKKKLARIITRHAYVKRDRELERQKICFYYAKFKKHGQFMQKLFNAGYYLHYLPKEIGVDLEEQFLVITPAVEWQFDLWEKFFKGLEKGDTFSECCFFESFQSVVTQILTIWLSPNESLKLGKSYLSYLIGEGVLSTIPDNRYRVKRKMVFTNTRAAHIEGHHHHHH”, the “soluble on expression in E. coli” value is recorded as “not soluble”.
For the sequence “MAAAVFHMEILQLNDLSSRLNPLATKNVVLHVCLGVRYFPNSACKSYKDAQALCKDGDGMSLTGPAQSMEKAFFKESVPKVDKCVIFLDGLALNHDEPYNFEFEDETHDGTKNYRFNSEDPNSQTAPNYIVFEYHVSGAHVFDRS”, the “soluble on expression in E. coli” value is reported as “not soluble”.
The result for “GPGSMSNNMLALPKVLLMGLRKSGKSSIQKVVFEGMQPHDSATLATTVQPEKSTVHSNDFVNFEVWDFPGQNDPFDSSNASRYDVNQLLENCGAIVYVLDCRELIDDARARLLDTISAAYRHNPELCVEVFIHKVDALSEDHQADLLASLQRRVEEEAKPLLENVQPLRLNFNLTSIYDHSVFQAFSLVVQKLIKSKTPYITELLQMLNSNSNIDLSYLFLSHSKIYVAVDERNRLKSRTYDLCSDAIEVVVKMSGIYMRQRDGVAGGVKDAFTDSVHSLAASATSRTIISSSLGSADGCASDVSELYRGANAVIQLSNEDCIYVRELPSSLTLVLMMKQTHLENRALIDRNVDIFYKAAFDIFSTSAS” reads “not soluble”; that for “LSKVVIRRLPPTLTKEQLQEHLQPMPEHDYFEFFSNDTSLYPHMYARAYINFKNQEDIILFRDRFDGYVFLDNKGQEYPAIVEFAPFQKAA”, “soluble”.
For the sequence “SNAMKQAIGFIDSGVGGLTVVREVLKQLPHEQVYYLGDTARCPYGPRDKEEVAKFTWEMTNFLVDRGIKMLVIACNTATAAALYDIREKLDIPVIGVIQPGSRAALKATRNNKIGVLGTLGTVESMAYPTALKGLNRRVEVDSLACPKFVSVVESGEYKSAIAKKVVAESLLPLKSTKIDTVILGCTHYPLLKPIIENFMGDGVAVINSGEETASEVSALLDYHNLLDATDEEIEHRFFTTGSTQIFKDIAKDWLNMPDMTVEHIKLGK”, the “soluble on expression in E. coli” value was “soluble”.
Consider “MSVNALYDYKFEPKDKVENFHGMQLLYVYWPDHLLFCAPFALLVQPGMTFSALVDEILKPATAAHPDSAKADFLNAEWLLNDEPFTPKADASLKEQGIDHKSMLTVTTPGLKGMANAGY”, for which the “soluble on expression in E. coli” value is on record as “soluble”.
Turning to “MNTSTTKPFAWPAHVFKEYDIRGRAGEELDESFAYWLGRAFADMMQKEGEKRAVVGHDNRLSSPGLHRALKDGLLDGGCDVVDIGLSTTPMFYYSLYYTNIPCGMIITASHNPGDENGFKIAMGKTTIYGERIQALRRAMERLSQEQPRPETARGREETLDLAPAYIKMLKEKIQLGPRKLKVVVDCGNGTPSIIAPQVLKEWGCDVVPLYCESDPTFPNHHPDPVVPENLTALIEMVRKEQADLGIAFDGDGDRIGVVDETGAIRWGDQLMVLFWREILKRYPGADAPVEVKCSQALVEEIERLGGKPFFHRTGHSHVKATLRRRPEIPFAGEMSGHLFFNDEFYGYDDALYAAGRLLRLLSHDERPLSEWFADVPRYAATPETRVACPEEKKPAAIAAVKNQFAGRYPVVDVDGARIQFPEGWGLVRPSNTQPILVLRAEAKTEEALAEIKRQLADCLHALELCIDW”, the “soluble on expression in E. coli” value is recorded as “soluble”.
